From ChEMBL document CHEMBL1143427, “Interactions of ceftobiprole with beta-lactamases from molecular classes A to D” (Antimicrob Agents Chemother, 2007)

Legend:
Settings in all cases: Enterobacter cloacae
[1] = substrate: CC1(C)S[C@@H]2[C@H](NC(=O)Cc3ccccc3)C(=O)N2[C@H]1C(=O)O
Description: (§1) Activity of Enterobacter cloacae 4080 AmpC (P99) assessed as drug hydrolysis by spectrophotometry

[2] = substrate: O=C(Cc1cccs1)N[C@@H]1C(=O)N2C(C(=O)[O-])=C(C[n+]3ccccc3)CS[C@H]12
Description: as §1

[3] = substrate: CO/N=C(\C(=O)N[C@@H]1C(=O)N2C(C(=O)[O-])=C(C[N+]3(C)CCCC3)CS[C@H]12)c1csc(N)n1
Description: as §1

[4] = substrate: Nc1nc(/C(=N/O)C(=O)N[C@@H]2C(=O)N3C(C(=O)O)=C(/C=C4\CCN([C@@H]5CCNC5)C4=O)CS[C@H]23)ns1
Description: as §1

[5] = substrate: CC(C)(O/N=C(\C(=O)N[C@@H]1C(=O)N2C(C(=O)[O-])=C(C[n+]3ccccc3)CS[C@H]12)c1csc(N)n1)C(=O)O
Description: as §1

[6] = substrate: CC1(C)S[C@@H]2[C@H](NC(=O)Cc3ccccc3)C(=O)N2[C@H]1C(=O)O; remark: listed apart in the source
Description: (§2) Ratio of Kcat to Km of Enterobacter cloacae 4092 AmpC (E2) assessed as drug hydrolysis by spectrophotometry

[7] = substrate: O=C(Cc1cccs1)N[C@@H]1C(=O)N2C(C(=O)[O-])=C(C[n+]3ccccc3)CS[C@H]12; remark: listed apart in the source
Description: as §2

[8] = substrate: Nc1nc(/C(=N/O)C(=O)N[C@@H]2C(=O)N3C(C(=O)O)=C(/C=C4\CCN([C@@H]5CCNC5)C4=O)CS[C@H]23)ns1; remark: listed apart in the source
Description: as §2

[9] = substrate: CC(C)(O/N=C(\C(=O)N[C@@H]1C(=O)N2C(C(=O)[O-])=C(C[n+]3ccccc3)CS[C@H]12)c1csc(N)n1)C(=O)O; remark: listed apart in the source
Description: as §2

[10] = substrate: CC1(C)S[C@@H]2[C@H](NC(=O)Cc3ccccc3)C(=O)N2[C@H]1C(=O)O; remark: listed apart in the source
Description: (§3) Ratio of Kcat to Km of Enterobacter cloacae 908R AmpC assessed as drug hydrolysis by spectrophotometry

[11] = substrate: O=C(Cc1cccs1)N[C@@H]1C(=O)N2C(C(=O)[O-])=C(C[n+]3ccccc3)CS[C@H]12; remark: listed apart in the source
Description: as §3

[12] = substrate: CO/N=C(\C(=O)N[C@@H]1C(=O)N2C(C(=O)[O-])=C(C[N+]3(C)CCCC3)CS[C@H]12)c1csc(N)n1; remark: listed apart in the source
Description: as §3

[13] = substrate: Nc1nc(/C(=N/O)C(=O)N[C@@H]2C(=O)N3C(C(=O)O)=C(/C=C4\CCN([C@@H]5CCNC5)C4=O)CS[C@H]23)ns1; remark: listed apart in the source
Description: as §3

[14] = substrate: CC(C)(O/N=C(\C(=O)N[C@@H]1C(=O)N2C(C(=O)[O-])=C(C[n+]3ccccc3)CS[C@H]12)c1csc(N)n1)C(=O)O; remark: listed apart in the source
Description: as §3

[15] = substrate: CC1(C)S[C@@H]2[C@H](NC(=O)Cc3ccccc3)C(=O)N2[C@H]1C(=O)O; remark: listed apart in the source
Description: (§4) Activity of Enterobacter cloacae 4092 AmpC (E2) assessed as drug hydrolysis by spectrophotometry

[16] = substrate: O=C(Cc1cccs1)N[C@@H]1C(=O)N2C(C(=O)[O-])=C(C[n+]3ccccc3)CS[C@H]12; remark: listed apart in the source
Description: as §4

[17] = substrate: CO/N=C(\C(=O)N[C@@H]1C(=O)N2C(C(=O)[O-])=C(C[N+]3(C)CCCC3)CS[C@H]12)c1csc(N)n1; remark: listed apart in the source
Description: as §4

[18] = substrate: O=C(Cc1cccs1)N[C@@H]1C(=O)N2C(C(=O)O)=C(/C=C/c3ccc([N+](=O)[O-])cc3[N+](=O)[O-])CS[C@H]12
Description: as §4

[19] = substrate: Nc1nc(/C(=N/O)C(=O)N[C@@H]2C(=O)N3C(C(=O)O)=C(/C=C4\CCN([C@@H]5CCNC5)C4=O)CS[C@H]23)ns1; remark: listed apart in the source
Description: as §4

[20] = substrate: CC(C)(O/N=C(\C(=O)N[C@@H]1C(=O)N2C(C(=O)[O-])=C(C[n+]3ccccc3)CS[C@H]12)c1csc(N)n1)C(=O)O; remark: listed apart in the source
Description: as §4

[21] = substrate: CC1(C)S[C@@H]2[C@H](NC(=O)Cc3ccccc3)C(=O)N2[C@H]1C(=O)O; remark: listed apart in the source
Description: (§5) Activity of Enterobacter cloacae 908R AmpC assessed as drug hydrolysis by spectrophotometry

[22] = substrate: O=C(Cc1cccs1)N[C@@H]1C(=O)N2C(C(=O)[O-])=C(C[n+]3ccccc3)CS[C@H]12; remark: listed apart in the source
Description: as §5

[23] = substrate: CO/N=C(\C(=O)N[C@@H]1C(=O)N2C(C(=O)[O-])=C(C[N+]3(C)CCCC3)CS[C@H]12)c1csc(N)n1; remark: listed apart in the source
Description: as §5

[24] = substrate: Nc1nc(/C(=N/O)C(=O)N[C@@H]2C(=O)N3C(C(=O)O)=C(/C=C4\CCN([C@@H]5CCNC5)C4=O)CS[C@H]23)ns1; remark: listed apart in the source
Description: as §5

[25] = substrate: CC(C)(O/N=C(\C(=O)N[C@@H]1C(=O)N2C(C(=O)[O-])=C(C[n+]3ccccc3)CS[C@H]12)c1csc(N)n1)C(=O)O; remark: listed apart in the source
Description: as §5

B1: Beta-lactamase (Enterobacter cloacae), P05364 (protein)
chain: MMRKSLCCALLLGISCSALATPVSEKQLAEVVANTITPLMKAQSVPGMAVAVIYQGKPHYYTFGKADIAANKPVTPQTLFELGSISKTFTGVLGGDAIARGEISLDDAVTRYWPQLTGKQWQGIRMLDLATYTAGGLPLQVPDEVTDNASLLRFYQNWQPQWKPGTTRLYANASIGLFGALAVKPSGMPYEQAMTTRVLKPLKLDHTWINVPKAEEAHYAWGYRDGKAVRVSPGMLDAQAYGVKTNVQDMANWVMANMAPENVADASLKQGIALAQSRYWRIGSMYQGLGWEMLNWPVEANTVVEGSDSKVALAPLPVAEVNPPAPPVKASWVHKTGSTGGFGSYVAFIPEKQIGIVMLANTSYPNPARVEAAYHILEALQ
Km [1]: 4.7 µM | kcat [1]: 32 s⁻¹ | Km [2]: 330 µM | kcat [2]: 2500 s⁻¹ | Km [3]: 67 µM | kcat [3]: 0.27 s⁻¹ | Km [4]: 9.4 µM | kcat [4]: 0.21 s⁻¹ | Km [5]: 2.9 µM | kcat [5]: 0.021 s⁻¹ | kcat/Km [6]: 7.8e+06 M⁻¹ s⁻¹ | kcat/Km [7]: 1.5e+06 M⁻¹ s⁻¹ | kcat/Km [8]: < 2200 M⁻¹ s⁻¹ | kcat/Km [9]: 1500 M⁻¹ s⁻¹ | kcat/Km [10]: 8.8e+06 M⁻¹ s⁻¹ | kcat/Km [11]: 8.9e+06 M⁻¹ s⁻¹ | kcat/Km [12]: 75000 M⁻¹ s⁻¹ | kcat/Km [13]: 38000 M⁻¹ s⁻¹ | kcat/Km [14]: 660000 M⁻¹ s⁻¹ | Km [15]: 8.3 µM | kcat [15]: 65 s⁻¹ | Km [16]: 480 µM | kcat [16]: 690 s⁻¹ | Km [17]: > 630 µM | kcat [17]: < 0.021 s⁻¹ | Km [18]: 56 µM | kcat [18]: 570 s⁻¹ | Km [19]: 26 µM | kcat [19]: < 0.057 s⁻¹ | Km [20]: 110 µM | kcat [20]: 0.16 s⁻¹ | Km [21]: 6 µM | kcat [21]: 53 s⁻¹ | Km [22]: 360 µM | kcat [22]: 3200 s⁻¹ | Km [23]: 16 µM | kcat [23]: 0.82 s⁻¹ | Km [24]: 12 µM | kcat [24]: 0.45 s⁻¹ | Km [25]: 3.5 µM | kcat [25]: 2.3 s⁻¹
